Assay results as given in paper PMC12279963 (Nature Communications, 2025).
Positions count from the first letter of the chain named. Numbers in names are those of the source.

T1: EcPBP1b^82-804 (pSI199), TM domain substituted with an N-terminal cysteine acylation site, ALFA-tagged (E. coli) (UniProt P02919)
T1 sequence (P02919 82-804, looked up): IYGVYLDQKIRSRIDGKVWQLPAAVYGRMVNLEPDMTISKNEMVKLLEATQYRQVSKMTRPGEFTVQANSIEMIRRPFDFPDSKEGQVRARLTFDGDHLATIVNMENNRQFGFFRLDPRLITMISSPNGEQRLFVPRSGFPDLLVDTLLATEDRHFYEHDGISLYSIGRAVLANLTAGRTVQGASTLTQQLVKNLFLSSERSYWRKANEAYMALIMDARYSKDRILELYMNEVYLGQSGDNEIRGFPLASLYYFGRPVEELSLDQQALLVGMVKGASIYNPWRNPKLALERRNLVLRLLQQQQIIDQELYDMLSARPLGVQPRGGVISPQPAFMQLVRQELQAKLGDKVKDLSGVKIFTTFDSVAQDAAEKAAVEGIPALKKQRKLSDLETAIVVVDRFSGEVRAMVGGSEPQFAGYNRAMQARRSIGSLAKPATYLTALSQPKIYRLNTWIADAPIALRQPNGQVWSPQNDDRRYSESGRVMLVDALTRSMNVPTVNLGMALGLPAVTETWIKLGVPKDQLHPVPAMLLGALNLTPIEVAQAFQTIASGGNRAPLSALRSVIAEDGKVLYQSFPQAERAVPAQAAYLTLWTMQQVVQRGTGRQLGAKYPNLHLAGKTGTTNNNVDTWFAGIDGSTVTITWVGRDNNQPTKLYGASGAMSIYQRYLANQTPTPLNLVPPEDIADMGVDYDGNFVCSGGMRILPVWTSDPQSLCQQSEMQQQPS

T2: EcPBP1b^C794A (pSI233), truncation 58-804, Cy3-labelled at C776 (E. coli, UniProt P02919 58-804, C794A, Cy3 (sulfo-Cy3-maleimide) on C776)
T2 sequence (looked up): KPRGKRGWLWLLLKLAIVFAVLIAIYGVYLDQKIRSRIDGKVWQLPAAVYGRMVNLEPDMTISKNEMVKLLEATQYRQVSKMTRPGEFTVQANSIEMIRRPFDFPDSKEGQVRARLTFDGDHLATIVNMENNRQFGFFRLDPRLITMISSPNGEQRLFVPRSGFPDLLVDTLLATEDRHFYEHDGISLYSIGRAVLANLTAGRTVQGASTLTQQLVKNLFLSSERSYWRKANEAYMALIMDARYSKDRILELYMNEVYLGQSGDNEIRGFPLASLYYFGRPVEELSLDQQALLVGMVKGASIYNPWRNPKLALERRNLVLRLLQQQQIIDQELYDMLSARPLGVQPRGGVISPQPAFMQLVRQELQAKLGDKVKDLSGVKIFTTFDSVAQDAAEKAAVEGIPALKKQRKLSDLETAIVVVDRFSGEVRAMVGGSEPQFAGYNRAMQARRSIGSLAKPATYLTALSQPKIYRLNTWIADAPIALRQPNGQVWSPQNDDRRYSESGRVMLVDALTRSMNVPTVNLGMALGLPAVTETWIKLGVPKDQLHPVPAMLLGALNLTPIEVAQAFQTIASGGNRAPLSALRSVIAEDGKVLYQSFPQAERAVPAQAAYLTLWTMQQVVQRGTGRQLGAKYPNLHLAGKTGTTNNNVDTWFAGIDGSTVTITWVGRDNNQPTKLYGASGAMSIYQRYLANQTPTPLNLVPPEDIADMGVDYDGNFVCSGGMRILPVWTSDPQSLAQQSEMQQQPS

B1: LpoB^64-213 (pSI259), wild type (domain or fragment)
chain: HEDQTAPPAPHIRHYDWNGAMQPMVSKMLGADGVTAGSVLLVDSVNNRTNGSLNAAEATETLRNALANNGKFTLVSAQQLSMAKQQLGLSPQDSLGTRSKAIGIARNVGAHYVLYSSASGNVNAPTLQMQLMLVQTGEIIWSGKGAVSQQ
B2: LpoB^64-213 A164S S180I S157V (combined) (domain or fragment)
chain: B1 chain with S94V, A101S, S117I
B3: LpoB^64-213 S157V Y178W (domain or fragment)
chain: B1 chain with S94V, Y115W
B4: EcLpoB^S211C (pSI204), truncation 21-213, Cy5-labelled (natural protein, E. coli, UniProt P0AB38 21-213, looked up)
chain: VGQREPAPVEEVKPAPEQPAEPQQPVPTVPSVPTIPQQPGPIEHEDQTAPPAPHIRHYDWNGAMQPMVSKMLGADGVTAGSVLLVDSVNNRTNGSLNAAEATETLRNALANNGKFTLVSAQQLSMAKQQLGLSPQDSLGTRSKAIGIARNVGAHYVLYSSASGNVNAPTLQMQLMLVQTGEIIWSGKGAVCQQ
modifications: Cy5 (sulfo-Cy5-maleimide) on C211

Tests used:
[1] = biological target: T1, EcPBP1b^82-804 (pSI199), TM domain substituted with an N-terminal cysteine acylation site, ALFA-tagged (E. coli); assay: BLI
[2] = biological target: T2, EcPBP1b^C794A (pSI233), truncation …; assay: FRET or BRET

Binder	Kd [1] [nM]	Kd [2] [nM]
B1	915	
B2	9	
B3	24	
B4		900
